Among the data in publication PMC7374751, “TIMP-3 facilitates binding of target metalloproteinases to the endocytic receptor LRP-1 and promotes scavenging of MMP-1” (Scientific Reports, 2020) are Kd, koff and kon values, retold here.

The experiment concerns the target T1, low-density lipoprotein receptor-related protein 1 (LRP-1) (UniProt Q07954 20-4544).
T1 construct: low-density lipoprotein receptor-related protein 1 (LRP-1), bought from Biomac; source: bought: Biomac (Leipzig, Germany)
Nature of the experiment: SPR; BIAcore T200; LRP-1 immobilised on a CM5 chip by amine coupling (3000 RU); 25 °C; 150 mM NaCl, 10 mM CaCl2, 50 mM Tris-HCl, 0.01% Tween-20, pH 7.5; 30 μl/min; ligands or pre-formed complexes injected; one-site binding model; triplicate. The note with it: both partners purified.

T1 sequence (Q07954 20-4544): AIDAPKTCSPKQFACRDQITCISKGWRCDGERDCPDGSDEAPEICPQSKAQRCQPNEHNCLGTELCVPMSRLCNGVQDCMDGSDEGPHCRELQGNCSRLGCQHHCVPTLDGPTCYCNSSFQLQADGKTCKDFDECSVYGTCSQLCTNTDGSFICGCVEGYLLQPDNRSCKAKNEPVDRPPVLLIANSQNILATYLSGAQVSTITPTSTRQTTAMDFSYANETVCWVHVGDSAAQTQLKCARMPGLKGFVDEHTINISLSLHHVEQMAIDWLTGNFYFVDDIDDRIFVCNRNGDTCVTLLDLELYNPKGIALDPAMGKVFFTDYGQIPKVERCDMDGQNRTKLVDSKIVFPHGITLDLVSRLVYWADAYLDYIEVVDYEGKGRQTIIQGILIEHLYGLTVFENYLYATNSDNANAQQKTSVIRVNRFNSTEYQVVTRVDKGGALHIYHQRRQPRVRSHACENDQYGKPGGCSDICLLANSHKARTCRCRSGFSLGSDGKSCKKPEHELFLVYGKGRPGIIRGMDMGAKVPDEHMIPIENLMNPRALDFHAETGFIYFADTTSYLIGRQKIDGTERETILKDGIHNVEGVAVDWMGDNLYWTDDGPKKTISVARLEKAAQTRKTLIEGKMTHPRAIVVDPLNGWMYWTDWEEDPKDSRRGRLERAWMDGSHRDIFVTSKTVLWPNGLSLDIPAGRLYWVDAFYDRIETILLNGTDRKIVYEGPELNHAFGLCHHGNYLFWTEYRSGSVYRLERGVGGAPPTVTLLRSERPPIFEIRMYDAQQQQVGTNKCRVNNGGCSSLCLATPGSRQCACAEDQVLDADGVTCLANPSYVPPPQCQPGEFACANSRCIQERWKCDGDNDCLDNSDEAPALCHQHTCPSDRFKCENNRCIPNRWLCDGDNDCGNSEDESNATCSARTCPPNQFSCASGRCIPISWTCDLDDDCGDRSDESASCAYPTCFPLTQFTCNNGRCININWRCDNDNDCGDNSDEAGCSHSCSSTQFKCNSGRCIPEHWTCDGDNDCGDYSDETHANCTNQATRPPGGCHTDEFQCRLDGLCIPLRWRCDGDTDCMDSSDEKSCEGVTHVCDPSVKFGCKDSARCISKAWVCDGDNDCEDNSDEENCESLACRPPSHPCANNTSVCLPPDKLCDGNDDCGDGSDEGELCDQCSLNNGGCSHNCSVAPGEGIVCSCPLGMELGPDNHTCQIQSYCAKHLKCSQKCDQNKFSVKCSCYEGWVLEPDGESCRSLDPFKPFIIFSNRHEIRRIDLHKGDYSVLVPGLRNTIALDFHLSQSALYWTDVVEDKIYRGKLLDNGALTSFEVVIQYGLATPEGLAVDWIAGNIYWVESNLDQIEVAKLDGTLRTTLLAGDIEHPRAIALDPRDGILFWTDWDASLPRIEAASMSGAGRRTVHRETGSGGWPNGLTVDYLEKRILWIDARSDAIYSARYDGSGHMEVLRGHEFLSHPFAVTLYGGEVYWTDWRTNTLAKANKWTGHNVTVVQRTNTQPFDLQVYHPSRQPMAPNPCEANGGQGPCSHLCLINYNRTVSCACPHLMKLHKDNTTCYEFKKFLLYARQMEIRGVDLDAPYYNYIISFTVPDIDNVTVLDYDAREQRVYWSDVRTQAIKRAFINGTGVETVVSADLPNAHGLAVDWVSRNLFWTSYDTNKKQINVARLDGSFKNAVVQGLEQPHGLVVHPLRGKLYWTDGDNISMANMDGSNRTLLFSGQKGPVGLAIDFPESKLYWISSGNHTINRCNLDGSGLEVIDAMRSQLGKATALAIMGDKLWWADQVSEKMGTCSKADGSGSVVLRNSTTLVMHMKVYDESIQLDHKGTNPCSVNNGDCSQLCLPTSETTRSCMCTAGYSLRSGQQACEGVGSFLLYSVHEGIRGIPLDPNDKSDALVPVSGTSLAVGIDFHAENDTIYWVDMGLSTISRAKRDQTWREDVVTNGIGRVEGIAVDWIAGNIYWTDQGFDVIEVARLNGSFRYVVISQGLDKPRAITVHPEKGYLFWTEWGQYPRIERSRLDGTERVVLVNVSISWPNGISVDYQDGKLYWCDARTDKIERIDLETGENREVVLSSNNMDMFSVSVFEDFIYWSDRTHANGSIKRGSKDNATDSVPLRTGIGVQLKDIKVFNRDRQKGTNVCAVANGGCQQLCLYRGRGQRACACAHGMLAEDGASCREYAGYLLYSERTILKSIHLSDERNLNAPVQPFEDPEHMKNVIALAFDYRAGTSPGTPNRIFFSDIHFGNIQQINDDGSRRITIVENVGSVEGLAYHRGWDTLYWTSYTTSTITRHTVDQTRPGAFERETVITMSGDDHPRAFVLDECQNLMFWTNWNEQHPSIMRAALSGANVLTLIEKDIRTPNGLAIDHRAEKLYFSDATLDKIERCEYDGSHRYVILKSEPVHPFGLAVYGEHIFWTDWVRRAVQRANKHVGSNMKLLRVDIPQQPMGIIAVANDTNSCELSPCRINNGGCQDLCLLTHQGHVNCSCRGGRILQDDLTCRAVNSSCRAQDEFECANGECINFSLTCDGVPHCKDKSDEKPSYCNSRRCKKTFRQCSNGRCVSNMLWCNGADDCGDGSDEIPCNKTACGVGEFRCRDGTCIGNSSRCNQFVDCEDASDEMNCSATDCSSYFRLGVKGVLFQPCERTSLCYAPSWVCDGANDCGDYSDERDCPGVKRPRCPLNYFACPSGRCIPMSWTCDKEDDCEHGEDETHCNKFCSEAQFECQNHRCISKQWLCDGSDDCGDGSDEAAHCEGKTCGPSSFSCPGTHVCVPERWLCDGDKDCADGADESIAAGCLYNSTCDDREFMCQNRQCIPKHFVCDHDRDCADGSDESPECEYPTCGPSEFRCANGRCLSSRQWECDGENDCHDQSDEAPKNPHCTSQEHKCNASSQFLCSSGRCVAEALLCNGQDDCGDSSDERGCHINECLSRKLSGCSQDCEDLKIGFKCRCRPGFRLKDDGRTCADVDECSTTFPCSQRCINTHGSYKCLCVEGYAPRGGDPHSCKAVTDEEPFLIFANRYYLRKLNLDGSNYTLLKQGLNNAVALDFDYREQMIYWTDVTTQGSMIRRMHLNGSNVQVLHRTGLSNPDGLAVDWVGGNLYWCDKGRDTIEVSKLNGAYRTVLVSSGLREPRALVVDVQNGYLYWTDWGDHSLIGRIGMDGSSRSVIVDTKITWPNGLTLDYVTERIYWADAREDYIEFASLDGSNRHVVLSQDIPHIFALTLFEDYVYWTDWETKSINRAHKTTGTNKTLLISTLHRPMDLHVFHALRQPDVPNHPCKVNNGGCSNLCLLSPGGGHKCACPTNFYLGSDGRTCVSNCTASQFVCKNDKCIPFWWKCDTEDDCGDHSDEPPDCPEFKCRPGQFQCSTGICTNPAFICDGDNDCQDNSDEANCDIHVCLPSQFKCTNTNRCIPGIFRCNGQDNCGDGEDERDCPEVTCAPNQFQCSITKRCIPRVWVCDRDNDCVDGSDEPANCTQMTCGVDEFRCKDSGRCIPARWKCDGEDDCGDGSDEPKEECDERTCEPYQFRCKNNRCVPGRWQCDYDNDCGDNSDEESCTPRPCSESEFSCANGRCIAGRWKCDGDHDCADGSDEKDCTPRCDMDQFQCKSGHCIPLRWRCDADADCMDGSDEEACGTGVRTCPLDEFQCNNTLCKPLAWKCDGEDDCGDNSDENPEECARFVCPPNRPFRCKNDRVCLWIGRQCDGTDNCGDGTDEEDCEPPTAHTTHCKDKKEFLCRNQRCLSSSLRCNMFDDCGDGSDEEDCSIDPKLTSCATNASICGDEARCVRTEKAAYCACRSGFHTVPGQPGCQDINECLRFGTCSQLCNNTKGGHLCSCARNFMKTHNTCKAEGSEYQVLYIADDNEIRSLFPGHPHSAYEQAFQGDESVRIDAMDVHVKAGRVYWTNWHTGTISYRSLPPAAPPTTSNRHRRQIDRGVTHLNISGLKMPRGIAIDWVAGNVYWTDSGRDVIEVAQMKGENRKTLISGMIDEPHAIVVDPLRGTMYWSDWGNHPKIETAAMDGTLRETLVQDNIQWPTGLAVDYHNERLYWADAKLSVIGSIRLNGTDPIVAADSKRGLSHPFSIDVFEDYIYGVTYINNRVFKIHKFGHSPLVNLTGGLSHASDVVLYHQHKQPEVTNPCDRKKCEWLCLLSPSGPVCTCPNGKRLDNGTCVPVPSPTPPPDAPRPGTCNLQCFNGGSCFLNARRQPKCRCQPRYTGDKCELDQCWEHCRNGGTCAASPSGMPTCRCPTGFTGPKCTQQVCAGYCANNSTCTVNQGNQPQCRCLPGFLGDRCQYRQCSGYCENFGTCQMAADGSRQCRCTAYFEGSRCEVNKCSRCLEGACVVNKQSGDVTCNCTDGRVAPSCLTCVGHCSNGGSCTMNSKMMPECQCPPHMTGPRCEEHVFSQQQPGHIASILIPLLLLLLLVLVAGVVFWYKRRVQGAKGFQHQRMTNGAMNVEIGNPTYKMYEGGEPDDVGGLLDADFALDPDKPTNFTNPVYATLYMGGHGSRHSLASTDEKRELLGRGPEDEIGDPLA

B1: Receptor-associated protein (RAP), recombinant His-tagged (natural protein, UniProt P30533 35-357, looked up)
chain: YSREKNQPKPSPKRESGEEFRMEKLNQLWEKAQRLHLPPVRLAELHADLKIQERDELAWKKLKLDGLDEDGEKEARLIRNLNVILAKYGLDGKKDARQVTSNSLSGTQEDGLDDPRLEKLWHKAKTSGKFSGEELDKLWREFLHHKEKVHEYNVLLETLSRTEEIHENVISPSDLSDIKGSVLHSRHTELKEKLRSINQGLDRLRRVSHQGYSTEAEFEEPRVIDLWDLAQSANLTDKELEAFREELKHFEAKIEKHNHYQKQLEIAHEKLRHAESVGDGERVSRSREKHALLEGRTKELGYTVKKHLQDLSGRISRARHNEL
The molecule B1 gave a Kd of 0.6 nM, a koff of 0.00419 s⁻¹ and a kon of 6.88e+06 M⁻¹ s⁻¹.

B2: MMP-1ΔC/TIMP-3 complex (complex)
chain 1: FVLTEGNPRWEQTHLTYRIENYTPDLPRADVDHAIEKAFQLWSNVTPLTFTKVSEGQADIMISFVRGDHRDNSPFDGPGGNLAHAFQPGPGIGGDAHFDEDERWTNNFREYNLHRVAAHELGHSLGLSHSTDIGALMYPSYTFSGDVQLAQDDIDGIQAIYGRSQNPVQP
chain 2: CTCSPSHPQDAFCNSDIVIRAKVVGKKLVKEGPFGTLVYTIKQMKMYRGFTKMPHVQYIHTEASESLCGLKLEVNKYQYLLTGRVYDGKMYTGLCNFVERWDQLTLSQRKGLNYRYHLGCNCKIKSCYYLPCFVTSKNECLWTDMLSNFGYPGYQSKHYACIRQKGGYCSWYRGWAPPDKSIINATDP
notes: catalytic domain of human MMP-1; pro-domain removed with APMA; as m8; as m3
On to B2, for which binding was characterised by a dissociation constant (Kd) of 6.42 nM, the koff turned out to be 0.00254 s⁻¹ and the kon is 396000 M⁻¹ s⁻¹.

B3: ADAM-10/TIMP-3 complex (complex)
chain 1: TTSAEKNTCQLYIQTDHLFFKYYGTREAVIAQISSHVKAIDTIYQTTDFSGIRNISFMVKRIRINTTADEKDPTNPFRFPNIGVEKFLELNSEQNHDDYCLAYVFTDRDFDDGVLGLAWVGAPSGSSGGICEKSKLYSDGKKKSLNTGIITVQNYGSHVPPKVSHITFAHEVGHNFGSPHDSGTECTPGESKNLGQKENGNYIMYARATSGDKLNNNKFSLCSIRNISQVLEKKRNNCFVESGQPICGNGMVEQGEECDCGYSDQCKDECCFDANQPEGRKCKLKPGKQCSPSQGPCCTAQCAFKSKSEKCRDDSDCAREGICNGFTALCPASDPKPNFTDCNRHTQVCINGQCAGSICEKYGLEECTCASSDGKDDKELCHVCCMKKMDPSTCASTGSVQWSRHFSGRTITLQPGSPCNDFRGYCDVFMRCRLVDADGPLARLKKAIFSPELYENIAE
chain 2: B2 chain 2
modifications: 1:1 non-covalent complex; ADAM10 ectodomain (R&D Systems) taken by convention as mature extracellular region without prodomain (catalytic Zn2+), limits not given; TIMP-3 C-terminal/FLAG tag left …
For the molecule B3, binding was put at a Kd of 8.67 nM, the koff was determined as 0.00386 s⁻¹ and the kon is 446000 M⁻¹ s⁻¹.

B4: ADAMTS5-2/TIMP-3 complex (complex)
chain 1: SISRARQVELLLVADASMARLYGRGLQHYLLTLASIANRLYSHASIENHIRLAVVKVVVLGDKDKSLEVSKNAATTLKNFCKWQHQHNQLGDDHEEHYDAAILFTREDLCGHHSCDTLGMADVGTICSPERSCAVIEDDGLHAAFTVAHEIGHLLGLSHDDSKFCEETFGSTEDKRLMSSILTSIDASKPWSKCTSATITEFLDDGHGNCLLDLPRKQILGPEELPGQTYDATQQCNLTFGPEYSVCPGMDVCARLWCAVVRQGQMVCLTKKLPAVEGTPCGKGRICLQGKCVDKTKKKYYSTSSHGNWGSWGSWGQCSRSCGGGVQFAYRHCNNPAPRNNGRYCTGKRAIYRSCSLMPCPPNGKSFRHEQCEAKNGYQSDAKGVKTFVEWVPKYAGVLPADVCKLTCRAKGTGYYVVFSPKVTDGTECRLYSNSVCVRGKCVRTGCDGIIGSKLQYDKCGVCGGDNSSCTKIVGTFNKKSKGYTDVVRIPEGATHIKVRQFKAKDQTRFTAYLALKKKNGEYLINGKYMISTSETIIDINGTVMNYSGWSHRDDFLHGMGYSATKEILIVQILATDPTKPLDVRYSFFVPKKSTPKVNSVTSHGSNKVGSHT
chain 2: B2 chain 2
notes: ADAMTS-5 lacking the C-terminal thrombospondin domain; as m17; as m3; also called [35S]TIMP-3/ADAMTS5-2
B4 showed a Kd of 4.5 nM, an off-rate (koff) of 0.00206 s⁻¹ and a kon of 457000 M⁻¹ s⁻¹.

B5: ADAMTS4-2/TIMP-3 complex (complex)
chain 1: FASLSRFVETLVVADDKMAAFHGAGLKRYLLTVMAAAAKAFKHPSIRNPVSLVVTRLVILGSGEEGPQVGPSAAQTLRSFCAWQRGLNTPEDSDPDHFDTAILFTRQDLCGVSTCDTLGMADVGTVCDPARSCAIVEDDGLQSAFTAAHELGHVFNMLHDNSKPCISLNGPLSTSRHVMAPVMAHVDPEEPWSPCSARFITDFLDNGYGHCLLDKPEAPLHLPVTFPGKDYDADRQCQLTFGPDSRHCPQLPPPCAALWCSGHLNGHAMCQTKHSPWADGTPCGPAQACMGGRCLHMDQLQDFNIPQAGGWGPWGPWGDCSRTCGGGVQFSSRDCTRPVPRNGGKYCEGRRTRFRSCNTEDCPTGSALTFREEQCAAYNHRTDLFKSFPGPMDWVPRYTGVAPQDQCKLTCQAQALGYYYVLEPRVVDGTPCSPDSSSVCVQGRCIHAGCDRIIGSKKKFDKCMVCGGDGSGC
chain 2: B2 chain 2
notes: ADAMTS-4 lacking the C-terminal spacer domain; as m16; as m3; also called [35S]TIMP-3/ADAMTS4-2
B5 yielded a Kd of 3.3 nM, a koff of 0.00217 s⁻¹ and a kon of 659000 M⁻¹ s⁻¹.

B6: FLAG-tagged ADAMTS-5 lacking the C-terminal thrombospondin domain (ADAMTS5-2) (domain or fragment, UniProt Q9UNA0 262-874, looked up)
chain: B4 chain 1
notes: ADAMTS-5 lacking the C-terminal thrombospondin domain
The molecule B6 came in with a Kd of 2.27 nM, a koff of 0.00678 s⁻¹ and a kon of 2.99e+06 M⁻¹ s⁻¹.

B7: FLAG-tagged N-TIMP-3 (N-terminal domain of TIMP-3) (domain or fragment, UniProt P35625 24-143, looked up)
chain: CTCSPSHPQDAFCNSDIVIRAKVVGKKLVKEGPFGTLVYTIKQMKMYRGFTKMPHVQYIHTEASESLCGLKLEVNKYQYLLTGRVYDGKMYTGLCNFVERWDQLTLSQRKGLNYRYHLGC
B7 showed a Kd of 5.65 nM, a koff of 0.00321 s⁻¹ and a kon of 567000 M⁻¹ s⁻¹.

B8: TIMP-1 (natural protein)
chain: not shown
notes: also called T1
On to B8, for which the Kd was determined as 30.9 nM, the koff was 0.0109 s⁻¹ and the kon worked out at 353000 M⁻¹ s⁻¹.

B9: FLAG-tagged ADAMTS-4 lacking the C-terminal spacer domain (ADAMTS4-2) (domain or fragment, UniProt O75173 213-685, looked up)
chain: B5 chain 1
notes: ADAMTS-4 lacking the C-terminal spacer domain
In turn, B9 came in with a Kd of 77.6 nM, a dissociation rate constant (koff) of 0.00381 s⁻¹ and a kon of 49000 M⁻¹ s⁻¹.
